From the nanobody polyreactivity screen of Harvey et al. (2022) come the findings set out here.

The nature of the series: yeast display, Sf9 membrane polyspecificity reagent, FACS + sequencing; frameworks hold sequencing errors. The procedure, abridged:
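Using colony PCR, genes from sorted yeast display clones were amplified, then sequenced on MiSeq at 2 × 250 and filtered by CDR length. The clones had been stained with 10% biotinylated, detergent-solubilized Sf9 membrane reagent for 1 hour at 4 °C and sorted by FACS into low and high (top ~1%) gates on anti-HA and streptavidin fluorescence. Polyreactivity labels come from the gate of origin.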
Take “QVQLVESGGGLVQAGGSLRLSCAASGSIFPDYAMGWYRQAPGKERELVAAITWRDDSTYYADSVKGRFTISRDNAKNTVYLQMNSLKPEDTAVYYCNASALDPLYAKDDYWGQGTQVTVSS”: the “polyreactivity (PSR sort gate)” value is given as “low polyreactivity”.
Consider “HVQLVESGGGLVQAGGSLRLSCAASGSTFNINAMGWYRQAPGKETEFVAAINYRGGSTYYADSVKGRFTISRDNSKNTVYLQMNSLKPEDTAVYYCAAASWKVRKKFDYWGQGTQVTVSS”, for which the “polyreactivity (PSR sort gate)” value is “low polyreactivity”.
As to “QVQLVESGGGLVQAGGSLRLSCAASGYTFGEYAMGWYRQAPGKERELVATISLSDGSTNYADSVKGRFTISRDNAKNTVYLQMNSLKPEDTAVYYCATETQQALYGSVLKYNYWGQGTQVTVSS”, the “polyreactivity (PSR sort gate)” value was “low polyreactivity”.
With “QVQLVESGGGLVQAGGSLRLSCAASGNTFPFNAMGWYRQAPGKERELVAAISRGGSTYYADSVKGRFTISRDNAKNTVYLQMNSLKPEDTAVYYCAVSAGKRRLDYWGQGTQVTVSS”, the “polyreactivity (PSR sort gate)” value is “high polyreactivity”.
Under “QVQLVESGGGLVEAGGSLRLSCAASGRIFTYYAMGWYRQAPGKERELVASISRSGGNTYYADSVKGRFTISRDNAKNTVYLQMNSLKPEDTAVYYCDAVYSRLDYWGQGTQVTVSS” stands “high polyreactivity”; under “QVQLVESGGGLVQAGGSLRLSCAASGFTFVYYVMGWYRPAPGKERELVAAISWSGGRTYYADSVKGRFTISRDNAKNTVYLQMNSLKPDDTAVYYCAAVRPYYYPLPTVPNLPYDYWGQGTQVTVSS”, “high polyreactivity”.
In the case of “QVQLVESGGGLVQAGGSLRLSCAASGNTFYGYAMGWYRQAPGKERELVASITLSGDSTYYADSVKGRFTISRDNAKNTVYLQMNSLKPEDTAVYYCGGVYTYPLGYYHYTYDYWGQGPQVTVSS”, the “polyreactivity (PSR sort gate)” value is “low polyreactivity”.
Under “QVQLVESGGGLVQAGGSLRLSCAASGRTFRLYAMGWYRHAPGKERELVAAISRRGGSTYYADSVKGRFTISRDNAKNTVYLQMNSLKPEDTAVYYCAKGLGSGQEIYGYDYWGQGTQVTVSS” stands “high polyreactivity”.
Regarding “QVQLVESGGGLVQAGGSLRLSCAASGRTFKKYAMGWYRQAPGKEREVVAAITSRVGSTSYADSVKGRFTISRDNAKNTVYLQMNSLKPEDTAVYYCAARYSVGTGYGYWGQGTQVTVSS”, the “polyreactivity (PSR sort gate)” value is “high polyreactivity”.
In the case of “QVQLVESGGGLVQAGGSLRLSCAASGFIFQKYAMGWYRQAPGKERELVAAISRSGGSTYYADSVKGRFTISRDNAKNTVYLQMNSLKPEDTAVYYCNAVYSTSRDYWGQGTQVTVSS”, the “polyreactivity (PSR sort gate)” value was “high polyreactivity”.
For the sequence “QVQLVESGGGLVPAGGSLRLSCAASGFTFSGYAMGWYRQAPGKERELVAAITRRGGSTYYADSVKGRFTISRDNAKNTVYLQMNSLKPEDTAVYYCAADSGYPWELDYWGQGTQVTVSS”, the “polyreactivity (PSR sort gate)” value is given as “low polyreactivity”.
For the sequence “QVQLVESGGGLVQAGGSLRLSCAASGSTLRYYAMGWYRQAPGKERELVAAISTGGSTYYADSVKVRFTISRDNAKNTVYLQMNSLKAEDTAVYYCAAEKKTKTYRYDYWGQGTQVTVSS”, the “polyreactivity (PSR sort gate)” value is on record as “low polyreactivity”.
As for “QVQLVESGGGLVQAGGSLRLSFAASGHTFRYYAMGWYRQAPGKERELVAAITGGGGSTYYADSVKGRFTISRDNAKNTVYFQMNSLKPEDTAVYYCATGGVSGMVGGDYWGQGTQVTVSS”, the “polyreactivity (PSR sort gate)” value is recorded as “low polyreactivity”.
Consider “QVQLQECGGGLVQAGGSLRLSCAASGNIFDADIMGWYRQAPGKERELVASVTDGGSTNYADSVKGRFTISRDNAKITVYLQLNSLKPEDTAVYYCAAIVYPDILTDFDYDYDYFYWGQGTQVTVGS”, for which the “polyreactivity (PSR sort gate)” value is “low polyreactivity”.
“QVQLVESGGGLVQAGGSLRLSCAASGSTFHTYVMGWYRQAPGKERELVASISSGGSTYYADSVKGRFTISRDNAKNTVSLQMNSLKPEDTAVYYCAAGYPYYWHFDYWGQGSQVTVSS”: the “polyreactivity (PSR sort gate)” value was “low polyreactivity”.
For “QVQLVESGGGLVQAGGSLRLSCAASGFTVGVYAMGWYRQAPGKERELVAAISSGGSTNYADSVKGRFTISRDNAKNTVYLQMNSLKPEDTAVYYCAKDVWYLVYYHWKSNRVWQYDYWGQGTQVTVSS” the value was “low polyreactivity”; for “QVQLVESGGGLVQAGGSLRLSCAASGFTFRYYVMGWYRQAPGKERELVAAITSGGSTNYADSVKGRFTISRDNAKNTVYLQMNSLKPEDTAVYYCYAAYRSYGRFDYWGQGTQVTVSS”, “low polyreactivity”; for “QVQLVESGGGLVQAGGSLSLSCAASGRTFRYYAMGWYRQAPGKERELVAAMRTRGASTYYADSVKGRFTISRDNAKNSVYLQMNSLKPEVSAVYYCAASRSGHGIIDYDSWGK”, “low polyreactivity”.
In the case of “QVQLVESGGGLVQAGGSLRLSCAASGSTFYKNAMGWYRQAPGKERELVAVINASGDSTYYADSVKGRFTISRDNAKNTVYLQMNSLKPEDTAVYYCAADHRGEYDYWGQGTQVTVSS”, the “polyreactivity (PSR sort gate)” value is “low polyreactivity”.
Take “QVQLVESGGGLVQAGGSLRLSCAASGFTFRYYVMGWYRQAPGKERELVAAITSGGRTHYADSVKGRFTISRDNAKNTDYLQMNSLKPEDTAVYYCAVRTQFAGLHYYYGYWGQGTQVTVSS”: the “polyreactivity (PSR sort gate)” value is “high polyreactivity”.
For “QVQLVESGGGLVQAGGRLRLSCAASGSIFQSYAMGWYRQAPGKERELVAVITGGGGSTYYADSVKGRFTISRDNAKNTVYLQMNSLKPEDTAVYYCAARPVTSYAYGSWGQGTQVTVSS” the value was “low polyreactivity”; for “QVQLVESGGGLVQAGGSLRLSCAASGSIFGKYAMGWYRQAPGKERELVAAISERTGRTYYADSVKGRFTISRDNAKNTVYLQMNSLKPEDTAVYYCNVGPLYSGWSTYGYDYWGQGTQVTVSS”, “high polyreactivity”.
On to “QVQLVESGGGLVQAGGSLRLSCAASGSTFYIYAMGWYRQAPGKERELVAVITRRGGSTSYADSVKGRFTISRDNAKNTVYLQINSLKPEDTAVYYCAAKRTWPDVKYIRYGYWGQGTQVTVSS”, for which the “polyreactivity (PSR sort gate)” value is “high polyreactivity”.
With “QVQLVESGGGLVQAGASLRLSCAASGSIIDDYAMGWYRQAPGKERELVAAITYSGGTTYYADSVKGRFTISRDNAKNTVYLQLNSLKREDTAVYYCAAEWRVYYATYGYWGQGTQVTVSS”, the “polyreactivity (PSR sort gate)” value was “high polyreactivity”.
For “QVQLVESGGGLDQAGGSLRLSCAASGSTFRQNVKGWYRQAPGKERELVAAISKSGGSTYYADSVKGRFTISRDNAKNTVYLQMNSLKPEDTAVYYCATRQRQRVDNREYYYWGQGTQVTVSS” the value was “high polyreactivity”.
On to “QVQLVESGGGLVQAGGSLRLSCAASGSIFYGYAMGWYIQAPGKERELVAAISGNGGSTYFADSVKGRFTISRDNAKNTVYLQMNSLKTEDTAVYYCAVEVYHYGYEYDYWGQGTQVTVSS”, for which the “polyreactivity (PSR sort gate)” value is given as “high polyreactivity”.
As to “QVQLVESGGGLVQAGGSLRLSCAASGSTFIRNAMGWYRQAPGKERELVAAISSSGGRTYYADSVKGRFTISRDNAKNTVYLQMNSLKPEDTAVYYCAARNARYVHTMEYWGQGTQVTVSS”, the “polyreactivity (PSR sort gate)” value was “high polyreactivity”.
For “QVQLVESGGGLVQAGGSLRLSCAASGFIFGVYAMGWYRKATGKERELVAAITTRAGTNYADSVKGRFTISRDNAKNTVYLQMNSLKPEDPAVYYCNAVGWYLLPYDYWGQGTQVTVSS”, the “polyreactivity (PSR sort gate)” value was “low polyreactivity”.
Take “QVQVVDSGGGLVQAGGSLRLSCAASGLTIVKNVMGWYRQAPGKERELVAAISRRGGSTYYADSVKGRFTISRDNAKNTVYLQMNSLKPEDTAVYYCNAVLNQLSYIYPAVGYWGQGTQVTVSS”: the “polyreactivity (PSR sort gate)” value is recorded as “high polyreactivity”.
In the case of “QVQLVESGGGLFQAGGSLRLSCAASGRIFVFYTMGWYRQAPGKERELVASINSGGSTYYADSVKGRFTISRDNAKNTVYLQMNSLKPEDTAVYYCAASRTRRGVRQFDYWGQGTQVTVSS”, the “polyreactivity (PSR sort gate)” value is on record as “high polyreactivity”.
Under “QVQLVESGGGLVQAGGSLRLSCAASGFTFVRYAMGWYRQAPGKEREFVASISARGGNTFYADSVKGRFTISRDNAKNTVYLQMNSLKPEDTAVYYCNALTYFKRSEYYWGQGTQVTVSS” stands “high polyreactivity”; under “QVQLVESGGGLVQAGGSLRLSCAASGFTFTIYAMGWYRQAPGKERELVATISGRAGRTYYADSVKGRFTISRDNAKNTVYLQITSRKPEDSAVYYCNAGQWRYPGLYYYWGHGTQVTVSS”, “high polyreactivity”; under “QVQLEESGGGLVQAGGSLRLSCAASVFPYYAMRWYRQATGKERELVAAITWSGADTYYADSVKGRFTISRDNAKNTVYLQMNSLKPEDTAVYYCAAEYSPIRDYEYWGQGTQVTVSS”, “low polyreactivity”.
As for “EVQLVESGGGLVQAGGSLRLICAASGRTFQNYAMGWYRQAPGKERELVADITSGGSTYADSVKGRFTISRDNAKNTVYLQMNSLKPEDTAVYYCNADRTYPEPAEYYYWGQGTQVTVSS”, the “polyreactivity (PSR sort gate)” value was “low polyreactivity”.
“QVQLVESGGGLVQAGASLRLSCAASGSIFRVYAMGWYRQAPGKERELVATIDTSTDSTYYADSVKGRFTISRDNAKNTVYIQMNSLKPEDTAVYYCNARGTYARYFQYDYSGQGTQVTVSS”: the “polyreactivity (PSR sort gate)” value is recorded as “low polyreactivity”.
Turning to “QVQLVESGGGLVQAGGSLRLSCAASGSIVNIYAMGWYRQAPGKERQLVARISCSGVSTYYADSVKGRLTISRDHAKNTVYLQMNSLKREDTAVYDCAARYGRVYYYGWYWLYYWGQGTQVTVSS”, the “polyreactivity (PSR sort gate)” value was “high polyreactivity”.
Take “QVQLVESGGGLFQEGGSLRLSCAASGRIFYGYGMGWYRQAPGKERELVAAITWSGSRTYYADSVKGRFTISRDNAKNTVYVQMNSLKPEDTAVYYCAARIPSDGYYYWGQGTQVTVSS”: the “polyreactivity (PSR sort gate)” value is on record as “high polyreactivity”.
For “QVQLVESGGGLVQAGGSLRLSCPASGFTFGSYAMGWYRQAPGKETEFVAVITRSGRTNYADSVKGRFTISRDNAKNTVYLQMNSLKPEDTAVYYCYADDVDDEVSPDLTEMDYWGQGTQVTVSS”, the “polyreactivity (PSR sort gate)” value is given as “low polyreactivity”.
On to “QVQLVESGGGLVQAGGSLRLSCAASGFTFLNNTMGWYRQAPGKERELVAAITSSGDRTYYADSVKGRFTISRDNAKNTVYLQMNSLKPEDTAVYYCAADWAYYVASYLYYTFDYWGQGTQVTVSS”, for which the “polyreactivity (PSR sort gate)” value is “low polyreactivity”.
As to “QVQLVESGGGLVQAGGSLRLSCAASGSTFDYNTMGWYRQAPGKERELVAVITYSGGRTYYADSVKGRFTISRDNAKNTVYLQMNSLKPEDTAVYYCNARYGYPLGHSIYYYWGQGTQVTVSS”, the “polyreactivity (PSR sort gate)” value is “low polyreactivity”.
In the case of “QVQLLESGGGLVQAVGSLRLSCAASGIIFWVNAMGWYRQAPGKERELFAAIRSDGSTKYADSVKGRFTISRDNAKNTVYLLMNSLKPEDTAHYYCAKRDYSYTWLRDYYYWGQGTQVTVSS”, the “polyreactivity (PSR sort gate)” value was “low polyreactivity”.
